Source: paper PMC3320615, “β-Microseminoprotein Endows Post Coital Seminal Plasma with Potent Candidacidal Activity by a Calcium- and pH-Dependent Mechanism” (PLoS Pathogens, 2012)

How the values were obtained:
[1] = tested on: Candida albicans ATCC 90028; assay: CFU assay with C. albicans; type: cell-based; conditions: for Estimate (difference between means of log values): control - treatment, pH 4
Procedure, shortened: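 About 4×10^3–10^4 CFU of C. albicans (ATCC 90028 unless stated) exposed to test substance in 10 mM Tris, 5 mM glucose at pH 7.4 or pH 4 for 4 h at 37 °C. Survivors counted as colonies after 2 days at 30 °C; log counts compared with control.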

C. albicans = assay: Antifungal gel overlay assay (AU-PAGE); type: cell-based, Candida albicans
Experimental: Gel overlay assay was performed essentially as described. Briefly, duplicate samples were run on native Acid Urea (AU-PAGE) gels in 5% (v/v) acetic acid at 100 V for 1 h 20 min. Candida albicans was grown over night, washed and resuspended in 10 mM NaPO4 pH 7.4 and approximately 1×10^5 CFU were added to 12 ml melted underlay agarose (10 mM NaPO4, pH 7.4, 0.03% SAB, 1% agarose type 1 (Sigma, St. Louis, MO)) and poured into a square Petri dish. One AU-gel was stained with Coomassie brilliant blue and one AU gel was washed 3×4 min in 10 mM NaPO4, pH 7.4 and then placed on top of the agarose and incubated for 4 h at 37°C. The AU gel was then removed and an overlay agarose (6% SAB, 1% agarosetype 1 (Sigma)) was poured on top of the underlay and incubated over night at 30°C. To make the clearing zones more visible, the agarose was stained with Coomassie brilliant blue followed by destaining.

S. agalactiae (SB1) = assay: Antibacterial CFU assay; type: cell-based; conditions: purified MSP 10 µM + 20 µM EDTA or recombinant dialyzed MSP 10 µM + 10 µM EDTA; neutral pH; data not shown
Experimental: (§1) E. coli (strain 37.4), S. aureus (strain 5120), S. pyogenes (M5 Manfredo), S. agalactiae (SB1), and E. faecalis (strain 2374) were grown in THY medium (Todd Hewitt with addition of yeast) and on THY agar plates at 37°C with 5% (v/v) CO2. Candida albicans was grown over night, washed, and resuspended in 10 mM Tris, 5 mM glucose, pH 7.4 or pH 4. Approximately 4×10^3 to 10^4 CFU of C. albicans were incubated with the test substance in low or neutral pH buffer for 4 h at 37°C. After incubation, the suspension was diluted and plated. Colonies were counted after two days incubation of the plates at 30°C. Bacteria from overnight cultures were inoculated in fresh medium and grown for 3 h, washed in 10 mM Tris, 5 mM glucose pH 7.4. Approximately 8×10^4 CFU were incubated with sample in 10 mM Tris, 5 mM glucose pH 7.4 or pH 4 for 1 h at 37°C, diluted, plated and incubated over night at 37°C and the colonies counted.

[2] = tested on: E. faecalis (strain 2374); assay: Antibacterial CFU assay; type: cell-based; conditions: purified MSP 10 µM + 20 µM EDTA or recombinant dialyzed MSP 10 µM + 10 µM EDTA; low and neutral pH; data not shown
Experimental: as §1

S. aureus (strain 5120) = assay: Antibacterial CFU assay; type: cell-based; conditions: purified MSP 10 µM + 20 µM EDTA or recombinant dialyzed MSP 10 µM + 10 µM EDTA; neutral pH; data not shown
Experimental: as §1

E. coli (strain 37.4) = assay: Antibacterial CFU assay; type: cell-based; conditions: purified MSP 10 µM + 20 µM EDTA or recombinant dialyzed MSP 10 µM + 10 µM EDTA; low and neutral pH; data not shown
Experimental: as §1

[3] = tested on: S. pyogenes (M5 Manfredo); assay: Antibacterial CFU assay; type: cell-based; conditions: purified MSP 10 µM + 20 µM EDTA or recombinant dialyzed MSP 10 µM + 10 µM EDTA; neutral pH; data not shown
Experimental: as §1

[4] = Size exclusion chromatography (dimerization); type: physicochemical; conditions: pH 7.5; 50 mM Tris, 150 mM NaCl; 1 mM calcium or 1 mM EDTA; HiPrep 16/60 Sephacryl S 100
From the text: Supplementary file ppat.1002625.s004.tif: Figure S3 Seize exclusion chromatography of MSP. […] (TIF) Click here for additional data file.

B1: β-microseminoprotein (natural protein, human, UniProt P08118 21-114, looked up)
chain: SCYFIPNEGVPGDSTRKCMDLKGNKHPINSEWQTDNCETCTCYETEISCCTLVSTPVGYDKDNCQRIFKKEDCKYIVVEKKDPKKTCSVSEWII
notes: human β-microseminoprotein (MSP, PSP94), native protein purified from seminal plasma; also called MSP; PSP94
Estimate (difference between means of log values) ([1]; 25 µM MSP + 25 µM EDTA + 0.5 mM calcium, experiment 1): -0.9947 | Estimate (difference between means of log values) ([1]; 25 µM MSP + 25 µM EDTA + 0.5 mM calcium, experiment 2): -0.9876 | Estimate (difference between means of log values) ([1]; 25 µM MSP + 25 µM EDTA + 0.5 mM calcium, experiment 3): -1.0805 | Estimate (difference between means of log values) ([1]; 25 µM MSP + 25 µM EDTA + 0.5 mM magnesium, experiment 1): 1.9399 | Estimate (difference between means of log values) ([1]; 25 µM MSP + 25 µM EDTA + 0.5 mM magnesium, experiment 2): 2.1624 | Estimate (difference between means of log values) ([1]; 25 µM MSP + 25 µM EDTA + 0.5 mM magnesium, experiment 3): 1.6349 | Estimate (difference between means of log values) ([1]; 25 µM MSP + 25 µM EDTA, experiment 1): 4.1638 | Estimate (difference between means of log values) ([1]; 25 µM MSP + 25 µM EDTA, experiment 2): 4.7089 | Estimate (difference between means of log values) ([1]; 25 µM MSP + 25 µM EDTA, experiment 3): 4.1911 | Estimate (difference between means of log values) ([1]; 25 µM, experiment 1): -0.06377 | Estimate (difference between means of log values) ([1]; 25 µM, experiment 2): -0.4481 | Estimate (difference between means of log values) ([1]; 25 µM, experiment 3): -0.4892 | Fungicidal activity in CFU assay ([1]; native MSP 10 µM + 20 µM EDTA or recombinant dialyzed MSP 10 µM + 10 µM EDTA): prominent fungicidal activity | Candidacidal activity in CFU assay ([1]; neutral and acidic pH, without EDTA): no candidacidal activity | Clearing zone in antifungal gel overlay assay (C. albicans): displayed antifungal activity by producing a clearing zone | Antibacterial activity in CFU assay (S. agalactiae (SB1)): no antibacterial activity | Antibacterial activity in CFU assay [2]: no antibacterial activity | Antibacterial activity in CFU assay (S. aureus (strain 5120)): no antibacterial activity | Antibacterial activity in CFU assay (E. coli (strain 37.4)): no antibacterial activity | Antibacterial activity in CFU assay [3]: no antibacterial activity | Oligomeric state on size exclusion chromatography [4]: eluted as a dimer
